In one series the target is T1, GafA (Rhodobacter capsulatus, UniProt D5AUH1 1-382).
T1 sequence: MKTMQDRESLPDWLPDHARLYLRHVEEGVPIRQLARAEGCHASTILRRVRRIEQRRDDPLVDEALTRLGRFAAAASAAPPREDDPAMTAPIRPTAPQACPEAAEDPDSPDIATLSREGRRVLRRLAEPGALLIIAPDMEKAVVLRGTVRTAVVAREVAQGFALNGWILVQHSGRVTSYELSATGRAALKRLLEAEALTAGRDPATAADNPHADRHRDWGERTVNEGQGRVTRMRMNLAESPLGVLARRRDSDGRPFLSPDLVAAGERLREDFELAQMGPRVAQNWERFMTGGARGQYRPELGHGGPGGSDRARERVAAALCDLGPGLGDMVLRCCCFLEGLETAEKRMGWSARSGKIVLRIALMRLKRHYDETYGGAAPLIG
The series can be described thus: EMSA; 2 uM GafA; 80 nM Cy5-dsDNA, 25 mM HEPES pH 8.0, 50 mM K-glutamate, 50 mM MgSO4, 1 mM DTT, 0.1 mM EDTA, 0.05% Triton X-100, 1 ug poly dI:dC, 4% glycerol, 30 C 15 min; GtaR: 10 mM HEPES pH 8, 40 mM NaCl, 37 C 30 min; PCR products: pGTA 2 ng/ul, unlabelled 100 ng. Conditions: protein: recombinant; tags: His6 (pCMF176) or His6-MBP (pCMF193); label: 5'-Cy5 (one strand); blunt. (Mobility shift assays separate free from complexed probe on a gel.)

The target in a further series is T2, GtaR (Rhodobacter capsulatus, UniProt D5AM23 1-203).
T2 sequence: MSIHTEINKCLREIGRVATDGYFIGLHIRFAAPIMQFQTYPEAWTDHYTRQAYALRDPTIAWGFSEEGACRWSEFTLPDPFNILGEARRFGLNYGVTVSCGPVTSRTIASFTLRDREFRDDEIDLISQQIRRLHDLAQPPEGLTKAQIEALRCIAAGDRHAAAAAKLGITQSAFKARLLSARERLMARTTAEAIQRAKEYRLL
The experiment in a line: EMSA; binding detected at 375 nM protein or above; GtaR buffer; 80 nM Cy5-dsDNA, 25 mM HEPES pH 8.0, 50 mM K-glutamate, 50 mM MgSO4, 1 mM DTT, 0.1 mM EDTA, 0.05% Triton X-100, 1 ug poly dI:dC, 4% glycerol, 30 C 15 min; GtaR: 10 mM HEPES pH 8, 40 mM NaCl, 37 C 30 min; PCR products: pGTA 2 ng/ul, unlabelled 100 ng. The following applies: protein: recombinant; tags: His6 (pEHisTEV, N-terminal); chain copies: 2; label: 5'-Cy5 (one strand); blunt.

The next series has as its target T3, CtrA (Rhodobacter capsulatus, UniProt D5ATW9 1-237).
T3 sequence: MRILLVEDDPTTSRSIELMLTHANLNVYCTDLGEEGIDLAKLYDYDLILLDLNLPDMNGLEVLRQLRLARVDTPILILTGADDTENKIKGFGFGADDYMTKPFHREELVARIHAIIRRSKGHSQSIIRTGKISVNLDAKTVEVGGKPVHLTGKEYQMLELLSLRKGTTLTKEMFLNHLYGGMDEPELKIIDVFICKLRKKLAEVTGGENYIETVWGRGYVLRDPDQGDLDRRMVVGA
The experiment in a line: EMSA; 80 nM Cy5-dsDNA, 25 mM HEPES pH 8.0, 50 mM K-glutamate, 50 mM MgSO4, 1 mM DTT, 0.1 mM EDTA, 0.05% Triton X-100, 1 ug poly dI:dC, 4% glycerol, 30 C 15 min; GtaR: 10 mM HEPES pH 8, 40 mM NaCl, 37 C 30 min; PCR products: pGTA 2 ng/ul, unlabelled 100 ng. Conditions: protein: recombinant; tags: His6 (pEHisTEV, N-terminal); chain copies: 2; label: 5'-Cy5 (one strand); blunt.

B1: pGTA4 (dsDNA)
DNA 1: TTCATTTCGCTCGTGCGGACAGGCATGAGAGGCGGGTCACGCAAGACATG
DNA 2: CATGTCTTGCGTGACCCGCCTCTCATGCCTGTCCGCACGAGCGAAATGAA
For the molecule B1, the binding result with GafA is “no binding”.

B2: pGafA_50 (gafA promoter) (dsDNA)
DNA 1: TCGAGATCGCCCCATTTCTTAACCAAGGGGTAACCAAAGCAACCCACGGT
DNA 2: ACCGTGGGTTGCTTTGGTTACCCCTTGGTTAAGAAATGGGGCGATCTCGA
B2: in the series with GtaR, the binding result is reported as “binds”. Also, the Kd (as a rule, the equilibrium constant for the complex coming apart) with CtrA came out at 54.9 nM.

B3: pGTA3 (dsDNA)
DNA 1: GCGCCGCGGGTGACCGTGTGCGCTTTTTTCATTTCGCTCGTGCGGACAGG
DNA 2: CCTGTCCGCACGAGCGAAATGAAAAAAGCGCACACGGTCACCCGCGGCGC
For the molecule B3, the binding result with GafA is “no binding”.

B4: pGTA5 (dsDNA)
DNA 1: GGCATGCTAGGAGAGGTGGGCAAGCGCCGCGGGTGACCGTGTGCGCTTTT
DNA 2: AAAAGCGCACACGGTCACCCGCGGCGCTTGCCCACCTCTCCTAGCATGCC
For B4, the binding result in the series with GafA is “no binding”.

B5: pGTA1 (dsDNA)
DNA 1: TCCGGGGTTTTTTCTTTTCAGCGGGTGCAACCCTGAATATAGCACTTGAC
DNA 2: GTCAAGTGCTATATTCAGGGTTGCACCCGCTGAAAAGAAAAAACCCCGGA
For B5, in the series with GafA, the binding result is given as “no binding”.

The values are drawn from paper PMC6363796, “Identification and characterization of a direct activator of a gene transfer agent”.
